Tests used:
[1] = target: T1, CD47 IgSF domain having amino acids 1-117 and C15S, relative to wild-type CD47 (SEQ ID NO: 35) (human, UniProt Q08722 19-135); test: inferred from SPR of cleaved constructs SEQ ID NOs: 52-54 on CD47-hFc
T1 construct: in the assay it was tethered to, or released by cleavage from, the SIRP-α variant (it then still carries spacer and linker residues); also called IgSF domain of CD47

[2] = target: T2, human CD47-hFc (R & D Systems, catalog number 4670-CD) (human, UniProt Q08722 19-139); test: SPR (Biacore T100), CD47-hFc immobilized on CM4 chip, intact construct at 100 nM
T2 construct: Bought; immobilized by amine coupling on a CM4 chip (370 RU); also called CD47 on the chip; not shown: human Fc (hFc) of a bought protein
T2 sequence (Q08722 19-139 limits assumed): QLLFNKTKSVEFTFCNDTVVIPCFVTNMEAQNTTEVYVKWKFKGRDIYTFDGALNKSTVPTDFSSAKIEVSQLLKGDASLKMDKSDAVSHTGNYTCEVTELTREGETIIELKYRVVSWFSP

[3] = target: T2, human CD47-hFc (R & D Systems, catalog …); test: SPR (Biacore T100), CD47-hFc immobilized on CM4 chip, intact construct injected
[4] = target: T2, human CD47-hFc (R & D Systems, catalog …); test: SPR (Biacore T100), CD47-hFc immobilized on CM4 chip, intact construct injected (FIG. 5B)

B1: SIRP-α variant (SEQ ID NO: 31) (receptor)
chain: EEELQIIQPDKSVLVAAGETATLRCTITSLFPVGPIQWFRGAGPGRVLIYNQRQGPFPRVTTVSDTTKRNNMDFSIRIGNITPADAGTYYCIKFRKGSPDDVEFKSGAGTELSVRAKPS
notes: also called SIRP-α variant alone
- binding result [1]: binds

B2: SIRP-α variant construct (SEQ ID NO: 48), intact (other)
chain: SEVTELTREGETGGGGSGGGGSLSGRSDNHGGGGSGGGGSEEELQIIQPDKSVLVAAGETATLRCTITSLFPVGPIQWFRGAGPGRVLIYNQRQGPFPRVTTVSDTTKRNNMDFSIRIGNITPADAGTYYCIKFRKGSPDDVEFKSGAGTELSVRAKPS
notes: uncleaved
- binding result [2]: binds

B3: SIRP-α variant construct (SEQ ID NO: 49), intact (other)
chain: SEVTELTREGETGGGGSGGGGSGGGGSLSGRSDNHGGGGSGGGGSEEELQIIQPDKSVLVAAGETATLRCTITSLFPVGPIQWFRGAGPGRVLIYNQRQGPFPRVTTVSDTTKRNNMDFSIRIGNITPADAGTYYCIKFRKGSPDDVEFKSGAGTELSVRAKPS
notes: uncleaved
- binding result [2]: binds

B4: SIRP-α variant construct (SEQ ID NO: 50), intact (other)
chain: GQYTSEVTELTREGETIIELKGGGGSGGGGSLSGRSDNHGGGGSGGGGSEEELQIIQPDKSVLVAAGETATLRCTITSLFPVGPIQWFRGAGPGRVLIYNQRQGPFPRVTTVSDTTKRNNMDFSIRIGNITPADAGTYYCIKFRKGSPDDVEFKSGAGTELSVRAKPS
notes: uncleaved
- binding result [2]: binds

B5: SIRP-α variant construct (SEQ ID NO: 51), intact (other)
chain: GQYTSEVTELTREGETIIELKGGGGSGGGGSGGGGSLSGRSDNHGGGGSGGGGSEEELQIIQPDKSVLVAAGETATLRCTITSLFPVGPIQWFRGAGPGRVLIYNQRQGPFPRVTTVSDTTKRNNMDFSIRIGNITPADAGTYYCIKFRKGSPDDVEFKSGAGTELSVRAKPS
notes: uncleaved
- binding result [2]: binds

B6: SIRP-α variant construct (SEQ ID NO: 52), intact (other)
chain: QLLFNKTKSVEFTFSNDTVVIPCFVTNMEAQNTTEVYVKWKFKGRDIYTFDGALNKSTVPTDFSSAKIEVSQLLKGDASLKMDKSDAVSHTGNYTCEVTELTREGETIIELKYRVVSGGGGSGGGGSGGGGSLSGRSDNHGGGGSGGGGSEEELQIIQPDKSVLVAAGETATLRCTITSLFPVGPIQWFRGAGPGRVLIYNQRQGPFPRVTTVSDTTKRNNMDFSIRIGNITPADAGTYYCIKFRKGSPDDVEFKSGAGTELSVRAKPS
notes: uncleaved
- binding result [3]: no binding (tested: 100 nM)

B7: SIRP-α variant construct (SEQ ID NO: 53), intact (other)
chain: QLLFNKTKSVEFTFSNDTVVIPCFVTNMEAQNTTEVYVKWKFKGRDIYTFDGALNKSTVPTDFSSAKIEVSQLLKGDASLKMDKSDAVSHTGNYTCEVTELTREGETIIELKYRVVSGGGGSGGGGSGGGGSGGGGSLSGRSDNHGGGGSGGGGSEEELQIIQPDKSVLVAAGETATLRCTITSLFPVGPIQWFRGAGPGRVLIYNQRQGPFPRVTTVSDTTKRNNMDFSIRIGNITPADAGTYYCIKFRKGSPDDVEFKSGAGTELSVRAKPS
notes: uncleaved
- binding result [3]: no binding (tested: 100 nM)

B8: SIRP-α variant construct (SEQ ID NO: 60), intact (other)
chain: QLLFNKTKSVEFTFSNDTVVIPCFVTNMEAQNTTEVYVKWKFKGRDIYTFDGALNKSTVPTDFSSAKIEVSQLLKGDASLKMDKSDAVSHTGNYTCEVTEQTREGETIIELKYRVVSGGGGSGGGGSGGGGSGGGGSLSGRSDNHGGGGSGGGGSEEELQIIQPDKSVLVAAGETATLRCTITSLFPVGPIQWFRGAGPGRVLIYNQRQGPFPRVTTVSDTTKRNNMDFSIRIGNITPADAGTYYCIKFRKGSPDDVEFKSGAGTELSVRAKPS
notes: uncleaved
- binding result [4]: no binding (tested: 100 nM)

B9: SIRP-α variant construct (SEQ ID NO: 61), intact (other)
chain: QLLFNKTKSVEFTFSNDTVVIPCFVTNMEAQNTTEVYVKWKFKGRDIYTFDGALNKSTVPTDFSSAKIEVSQLLKGDASLKMDKSDAVSHTGNYTCEVTEYTREGETIIELKYRVVSGGGGSGGGGSGGGGSGGGGSLSGRSDNHGGGGSGGGGSEEELQIIQPDKSVLVAAGETATLRCTITSLFPVGPIQWFRGAGPGRVLIYNQRQGPFPRVTTVSDTTKRNNMDFSIRIGNITPADAGTYYCIKFRKGSPDDVEFKSGAGTELSVRAKPS
notes: uncleaved
- binding result [4]: no binding (tested: 100 nM)

B10: SIRP-α variant construct (SEQ ID NO: 62), intact (other)
chain: QLLFNKTKSVEFTFSNDTVVIPCFVTNMEAQNTTEVYVKWKFKGRDIYTFDGALNKSTVPTDFSSAKIEVSQLLKGDASLKMDKSDAVSHTGNYTCEVTELQREGETIIELKYRVVSGGGGSGGGGSGGGGSGGGGSLSGRSDNHGGGGSGGGGSEEELQIIQPDKSVLVAAGETATLRCTITSLFPVGPIQWFRGAGPGRVLIYNQRQGPFPRVTTVSDTTKRNNMDFSIRIGNITPADAGTYYCIKFRKGSPDDVEFKSGAGTELSVRAKPS
notes: uncleaved
- binding result [4]: no binding (tested: 100 nM)

B11: SIRP-α variant construct (SEQ ID NO: 63), intact (other)
chain: QLLFNKTKSVEFTFSNDTVVIPCFVTNMEAQNTTEVYVKWKFKGRDIYTFDGALNKSTVPTDFSSAKIEVSQLLKGDASLKMDKSDAVSHTGNYTCEVTELHREGETIIELKYRVVSGGGGSGGGGSGGGGSGGGGSLSGRSDNHGGGGSGGGGSEEELQIIQPDKSVLVAAGETATLRCTITSLFPVGPIQWFRGAGPGRVLIYNQRQGPFPRVTTVSDTTKRNNMDFSIRIGNITPADAGTYYCIKFRKGSPDDVEFKSGAGTELSVRAKPS
notes: uncleaved
- binding result [4]: no binding (tested: 100 nM)

B12: SIRP-α variant construct (SEQ ID NO: 54), intact (other)
chain: QLLFNKTKSVEFTFSNDTVVIPCFVTNMEAQNTTEVYVKWKFKGRDIYTFDGALNKSTVPTDFSSAKIEVSQLLKGDASLKMDKSDAVSHTGNYTCEVTELTREGETIIELKYRVVSGGGGSGGGGSGGGGSGGGGSGGGGSLSGRSDNHGGGGSGGGGSEEELQIIQPDKSVLVAAGETATLRCTITSLFPVGPIQWFRGAGPGRVLIYNQRQGPFPRVTTVSDTTKRNNMDFSIRIGNITPADAGTYYCIKFRKGSPDDVEFKSGAGTELSVRAKPS
notes: uncleaved
- binding result [3]: no binding (tested: 100 nM)

B13: SIRP-α variant construct (SEQ ID NO: 57), intact (other)
chain: GQLLFNKTKSVEFTFSNDTVVIPCFVTNMEAQNTTEVYVKWKFKGRDIYTFDGALNKSTVPTDFSSAKIEVSQLLKGDASLKMDKSDAVSHTGNYTCEVTELTREGETIIELKYRVVSGGGGSGGGGSGGGGSLSGRSDNHGGGGSGGGGSEEELQIIQPDKSVLVAAGETATLRCTITSLFPVGPIQWFRGAGPGRVLIYNQRQGPFPRVTTVSDTTKRNNMDFSIRIGNITPADAGTYYCIKFRKGSPDDVEFKSGAGTELSVRAKPS
notes: uncleaved
- binding result [4]: no binding (tested: 100 nM)

B14: SIRP-α variant construct (SEQ ID NO: 58), intact (other)
chain: GQLLFNKTKSVEFTFSNDTVVIPCFVTNMEAQNTTEVYVKWKFKGRDIYTFDGALNKSTVPTDFSSAKIEVSQLLKGDASLKMDKSDAVSHTGNYTCEVTELTREGETIIELKYRVVSGGGGSGGGGSGGGGSGGGGSLSGRSDNHGGGGSGGGGSEEELQIIQPDKSVLVAAGETATLRCTITSLFPVGPIQWFRGAGPGRVLIYNQRQGPFPRVTTVSDTTKRNNMDFSIRIGNITPADAGTYYCIKFRKGSPDDVEFKSGAGTELSVRAKPS
notes: uncleaved
- binding result [4]: no binding (tested: 100 nM)

B15: SIRP-α variant construct (SEQ ID NO: 59), intact (other)
chain: GQLLFNKTKSVEFTFSNDTVVIPCFVTNMEAQNTTEVYVKWKFKGRDIYTFDGALNKSTVPTDFSSAKIEVSQLLKGDASLKMDKSDAVSHTGNYTCEVTELTREGETIIELKYRVVSGGGGSGGGGSGGGGSGGGGSGGGGSLSGRSDNHGGGGSGGGGSEEELQIIQPDKSVLVAAGETATLRCTITSLFPVGPIQWFRGAGPGRVLIYNQRQGPFPRVTTVSDTTKRNNMDFSIRIGNITPADAGTYYCIKFRKGSPDDVEFKSGAGTELSVRAKPS
notes: uncleaved
- binding result [4]: no binding (tested: 100 nM)
